Laboratory results: patent US20020151522A1, “Regulation of weight” (priority 2001, published 2002)
Where two headings read alike, the source gives them in different places.

B1: GDNF: glial-derived neurotrophic factor (protein, UniProt P39905 78-211, looked up)
Glial cell line-derived …: SPDKQMAVLPRRERNRQAAAANPENSRGKGRRGQRGKNRGCVLTAIHLNVTDLGLGYETKEELIFRYCSGSCDAAETTYDKILKNLSRNRRLVSDKVGQACCRPIAFDDDLSFLDDNLVYHILRKHSAKRCGCI
B2: BDNF: brain-derived neurotrophic factor (protein, UniProt P23560 19-247, looked up)
Neurotrophic factor BDNF …: APMKEANIRGQGGLAYPGVRTHGTLESVNGPKAGSRGLTSLADTFEHVIEELLDEDQKVRPNEENNKDADLYTSRVMLSSQVPLEPPLLFLLEEYKNYLDAANMSMRVRRHSDPARRGELSVCDSISEWVTAADKKTAVDMSGGTVTVLEKVPVSKGQLKQYFYETKCNPMGYTKEGCRGIDKRHWNSQCRTTQSYVRALTMDSKKRIGWRFIRIDTSCVCTLTIKRGR

Tests used:
[1] = infused in the brain of adult rats with partial or full lesions, e.g. partial fimbria-fornix transection; cited from earlier work
[2] = Body weight gain over 14 days after unilateral fimbria-fornix lesion with daily intracerebroventricular infusion; assay type: in vivo, rat; details: male Wistar rats, fimbria-fornix lesion/cannulation; icv 2 μL daily for 14 days; GPE 3 μg/day, IGF-I 20 μg/day, NGF 1 μg/day
Description: A group of male Wistar rats weighing 174-193 g (University of Auckland, Animal Resources Unit) were divided randomly into the following groups: “control”, “sham”, “vehicle”, “GPE”, “IGF-I”, and “NGF”, depending on the treatment each animal was to undergo. “Control” animals were weighed at the first and last time points and were not treated or handled at any other time. “Sham” animals underwent a sham surgery of anesthesia, incision through the scalp skin, drill hole through the skull, bone wax to seal the drill hole, and sutures for the skin incision. They were then handled daily in mock infusions to mimic handling of animals that received lesions and intracerebroventricular infusions.
“Vehicle”, “GPE”, “IGF-I”, and “NGF” animals were anaesthetized with 75 mg/Kg sodium pentobarbital and positioned in a stereotaxic apparatus (Kopf Instruments, USA), and underwent unilateral fimbria-fomix lesions to lesion septal cholinergic neurons and chronic cannula implantation into the left lateral cerebral ventricle. Fomix-fimbria lesions were performed by transecting the fimbria-fornix projection using a specialized retractable wire Scouten knife (Kopf Instruments) designed to minimize tissue damage except at the required lesion site. Anaesthetized animals received an incision through their scalp skin and a small drill hole was made in the skull at the stereotaxic coordinates anterior-posterior (AP) axis −1.0 mm from the bregma and medial-lateral (ML) axis +2.5 mm from midline (left side), from an atlas of the rat brain (Paxinos et al. (1986), “The rat brain in stereotaxic coordinates”, Academic Press, London). The knife was lowered into the brain through the drill hole to the coordinate +6.0 mm ventral to the skull on the dorsal-ventral (DV) axis. The knife blade was then extended 2.5 mm toward midline at an angle of 30° caudal to the bregma. The knife, with blade extended, was then raised 4.5 mm dorsally to axotomize the fimbriafomix fibres. The blade was then retracted, the knife lowered 4.5 mm to its original coordinate, and the process was repeated. […]

[3] = intravenous, humans after moderate to severe head injury; cited from earlier work
[4] = administered into the brain, adult rats after transient forebrain ischemia; cited from earlier work
[5] = Weight gain in human patient suffering from a head injury, central administration for 14 days; assay type: in vivo
Experimental: GPE in a dose of 10 μg/Kg/day is administered via lateral cerebroventricular injection into the brain of a human patient suffering from a head injury to promote weight gain to normal levels. Alternatively, a GPE analog is administered. Treatment is commenced as soon as possible after the head injury and then for 14 days thereafter.
A GPE analog in a dose of 20 μg/Kg/day is administered via focal injection into the lateral cerebral ventricle of a human patient suffering from a head injury to promote weight gain to normal levels. Alternatively, GPE is administered. Treatment is commenced as soon as possible after the head injury and then for 14 days thereafter.
GPE in a dose of 5 μg/Kg/day is administered via a surgically inserted shunt into the lateral cerebral ventricle of a human patient suffering from a head injury to promote weight gain to normal levels. Alternatively, a GPE analog is administered. Treatment is commenced as soon as possible after the head injury and then for 14 days thereafter.

[6] = intracerebroventricular, patients with Alzheimer's disease; cited from earlier work
[7] = administered to the brain of normal, unlesioned rats; cited from earlier work

Molecule	effect on body weight [1]	weight gain over the 14 days [2]	effect on body weight [7]	also measured
bFGF: basic fibroblast growth factor	either decrease normal body weight gain or cause weight loss			
IGF-I: insulin-like growth factor I		minimal weight gain		effect on body weight [3]: cause weight gain; effect on body weight [4]: cause weight gain
NCC(=O)N1CCC[C@H]1C(=O)N[C@@H](CCC(=O)O)C(=O)O [GPE, glycyl-L-prolyl-L-glutamic acid]		the normally expected weight gain occurred		weight gain in the patient ([5]; 5 μg/Kg/day via surgically inserted shunt into the lateral cerebral ventricle): Normal weight gain is promoted; weight gain in the patient ([5]; 10 μg/Kg/day via lateral cerebroventricular injection): Normal weight gain is promoted; weight gain in the patient ([5]; 20 μg/Kg/day via focal injection into the lateral cerebral ventricle): Normal weight gain is promoted
NGF: Nerve growth factor	either decrease normal body weight gain or cause weight loss	no weight gain	cause weight loss	effect on body weight [6]: marked weight reduction
B1	either decrease normal body weight gain or cause weight loss		cause weight loss	
B2	either decrease normal body weight gain or cause weight loss		cause weight loss	
